Numbering of substitutions follows the chain as printed.
T1: CD30 (human, UniProt P28908)
T1 sequence (receptor, looked up): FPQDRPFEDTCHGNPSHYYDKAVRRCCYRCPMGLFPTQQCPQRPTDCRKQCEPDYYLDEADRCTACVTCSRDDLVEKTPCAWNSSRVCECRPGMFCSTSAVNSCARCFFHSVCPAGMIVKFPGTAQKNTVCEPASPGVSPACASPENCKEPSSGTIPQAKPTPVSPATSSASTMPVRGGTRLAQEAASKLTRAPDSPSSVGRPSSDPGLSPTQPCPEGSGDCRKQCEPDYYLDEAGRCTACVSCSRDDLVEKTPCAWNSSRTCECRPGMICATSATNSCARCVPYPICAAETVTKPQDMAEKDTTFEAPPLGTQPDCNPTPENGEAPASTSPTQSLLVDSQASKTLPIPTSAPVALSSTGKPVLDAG

T2: DcR1 (human, UniProt O14798)
T2 sequence (receptor, looked up): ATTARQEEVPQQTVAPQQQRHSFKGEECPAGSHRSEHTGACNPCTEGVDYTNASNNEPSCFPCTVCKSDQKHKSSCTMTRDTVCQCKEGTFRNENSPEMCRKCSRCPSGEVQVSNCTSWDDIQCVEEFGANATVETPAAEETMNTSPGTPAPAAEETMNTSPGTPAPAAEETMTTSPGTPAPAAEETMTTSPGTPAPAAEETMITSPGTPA

T3: DR3 (human, UniProt Q93038)
T3 sequence (receptor, looked up): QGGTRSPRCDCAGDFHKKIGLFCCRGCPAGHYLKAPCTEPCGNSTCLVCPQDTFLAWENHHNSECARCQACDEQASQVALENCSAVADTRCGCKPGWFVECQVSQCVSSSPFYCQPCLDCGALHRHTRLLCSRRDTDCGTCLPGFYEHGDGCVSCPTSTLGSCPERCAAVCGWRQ

T4: BCMA (human, UniProt Q02223)
T4 sequence (receptor, looked up): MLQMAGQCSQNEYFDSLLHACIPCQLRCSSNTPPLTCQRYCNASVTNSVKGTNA

T5: DcR3 (human, UniProt O95407)
T5 sequence (receptor, looked up): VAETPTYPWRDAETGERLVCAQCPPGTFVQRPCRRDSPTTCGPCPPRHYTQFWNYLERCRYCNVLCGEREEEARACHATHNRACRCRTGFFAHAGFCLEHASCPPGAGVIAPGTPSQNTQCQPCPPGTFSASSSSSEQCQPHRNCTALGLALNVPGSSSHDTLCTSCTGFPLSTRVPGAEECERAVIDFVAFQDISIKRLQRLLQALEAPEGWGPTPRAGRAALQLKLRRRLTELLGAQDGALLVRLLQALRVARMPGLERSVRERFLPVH

T6: TACI (human, UniProt O14836)
T6 sequence (receptor, looked up): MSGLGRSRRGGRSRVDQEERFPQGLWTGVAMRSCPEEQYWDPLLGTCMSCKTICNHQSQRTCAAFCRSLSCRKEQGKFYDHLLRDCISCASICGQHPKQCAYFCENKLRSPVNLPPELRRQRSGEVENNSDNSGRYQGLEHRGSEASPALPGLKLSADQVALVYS

T7: human GITR expressed on cells (human, UniProt Q9Y5U5 27-241)
T7 sequence: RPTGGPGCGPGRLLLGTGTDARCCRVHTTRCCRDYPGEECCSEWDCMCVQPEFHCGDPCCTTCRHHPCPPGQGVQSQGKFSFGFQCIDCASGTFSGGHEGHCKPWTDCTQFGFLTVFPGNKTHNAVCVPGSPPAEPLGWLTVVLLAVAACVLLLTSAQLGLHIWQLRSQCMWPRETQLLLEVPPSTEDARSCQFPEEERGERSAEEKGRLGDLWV

T8: human GITR (hGITR), form not stated (human, UniProt Q9Y5U5 26-162, limits assumed)
T8 construct: the construct is not described
T8 sequence: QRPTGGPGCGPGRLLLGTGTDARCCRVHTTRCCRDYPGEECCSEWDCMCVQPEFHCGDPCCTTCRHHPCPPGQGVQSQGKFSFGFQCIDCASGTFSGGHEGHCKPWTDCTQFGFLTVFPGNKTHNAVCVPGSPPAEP

B1: MAB4 (IgG1 kappa) (antibody, V domains shown)
VH: EVQLVESGGGLVQSGGSLRLSCAASGFSLSSYGVDWVRQAPGKGLEWVGVIWGGGGTYYASSLMGRFTISRDNSKNTLYLQMNSLRAEDTAVYYCAKHAYGHDGGFAMDYWGQGTLVTVSS
VL: EIVMTQSPATLSVSPGERATLSCRASESVSSNVAWYQQRPGQAPRLLIYGASNRATGIPARFSGSGSGTDFTLTISRLEPEDFAVYYCGQSYSYPFTFGQGTKLEIKR
B2: MAB5 (IgG1 kappa) (antibody, V domains shown)
VH: B1 VH with V48L, A60T
VL: B1 VL
notes: also called MABS (misprint of MAB5)

Legend:
[1] = target: T1, CD30; assay: specificity ELISA, bacterial lysate on HisGrab nickel plate
Experimental: (§1) For the specificity ELISA, a crude cell lysate was made from bacteria expressing members of the TNFRSF family. To prevent nonspecific binding to the plate 50 μL of 5% BSA was added per mL of bacterial lysate. […] The plate was then rinsed three times with PBST, then MAB was diluted to 0.5 μg/mL in 10% FBS in PBS and 100 μL was added to each well. The plate was incubated for 1 hour at room temperature and then rinsed three times with PBST. Anti-human kappa antibody (Sigma #A7164) conjugated to HRP was diluted 1:5000 in 1:1 PBST: 10% FBS in PBS and 100 μL added to each well. The plate was incubated for 1 hour at room temperature, and then washed three times with PBST. 100 μL of SureBlue TMB substrate was added to each well and the plate was incubated for about 10 min at room temperature before stopping the reaction with 100 μL /well of 2N H₂SO₄.

[2] = target: T2, DcR1; assay: as above
Experimental: as §1

[3] = target: T3, DR3; assay: as above
Experimental: as §1

[4] = target: DR5 (human, UniProt O14763); assay: as above
Experimental: as §1

[5] = target: T4, BCMA; assay: as above
Experimental: as §1

[6] = target: T5, DcR3; assay: as above
Experimental: as §1

[7] = target: T6, TACI; assay: as above
Experimental: as §1

[8] = target: CD40 (human, UniProt P25942); assay: as above
Chain of CD40 (P25942 21-193 limits assumed): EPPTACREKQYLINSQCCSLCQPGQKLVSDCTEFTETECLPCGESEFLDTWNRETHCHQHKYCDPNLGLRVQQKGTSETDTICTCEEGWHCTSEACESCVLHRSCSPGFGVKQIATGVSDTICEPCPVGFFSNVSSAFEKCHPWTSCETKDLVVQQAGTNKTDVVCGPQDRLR
Experimental: as §1

[9] = target: cyno GITR (cGITR), form not stated (cynomolgus monkey); assay: Biacore (SPR)
[10] = target: T7, human GITR expressed on cells; assay: cell-based or functional assay
[11] = target: T8, human GITR (hGITR), form not stated; assay: Biacore (SPR), IgG
[12] = target: cyno GITR (cGITR), form not stated (cynomolgus monkey); assay: Biacore (SPR), IgG

Binder | binding result [1] | binding result [2] | binding result [3] | binding result [4] | binding result [5] | binding result [6] | binding result [7] | binding result [8] | fold lower binding affinity for cyno GITR than for human GITR [9] [fold] | EC50, NFκB-luciferase reporter in 293 cells overexpressing human GITR, antibody cross-linked [10] [nM] | Kd [11] [nM] | Kd [12] [nM]
B1 | no binding (tested: not on the sheet; paragraph 335: 0.5 µg/mL) | no binding (tested: not on the sheet; paragraph 335: 0.5 µg/mL) | no binding (tested: not on the sheet; paragraph 335: 0.5 µg/mL) | no binding (tested: not on the sheet; paragraph 335: 0.5 µg/mL) | no binding (tested: not on the sheet; paragraph 335: 0.5 µg/mL) | no binding (tested: not on the sheet; paragraph 335: 0.5 µg/mL) | no binding (tested: not on the sheet; paragraph 335: 0.5 µg/mL) | no binding (tested: not on the sheet; paragraph 335: 0.5 µg/mL) | 2 to 3 | ~2.5 | 0.684 | 1.78
B2 | no binding (tested: not on the sheet; paragraph 335: 0.5 µg/mL) | no binding (tested: not on the sheet; paragraph 335: 0.5 µg/mL) | no binding (tested: not on the sheet; paragraph 335: 0.5 µg/mL) | no binding (tested: not on the sheet; paragraph 335: 0.5 µg/mL) | no binding (tested: not on the sheet; paragraph 335: 0.5 µg/mL) | no binding (tested: not on the sheet; paragraph 335: 0.5 µg/mL) | no binding (tested: not on the sheet; paragraph 335: 0.5 µg/mL) | no binding (tested: not on the sheet; paragraph 335: 0.5 µg/mL) | 2 to 3 | ~2.5 | 0.973 | 1.87

Reference: US20170306037A1 (Novartis, published 2017)
